We go through one molecule from patent publication US10870872B2, “Enzymatic nucleic acid synthesis” (President and Fellows of Harvard College, priority 2016, dated 2020).

For data set [1], the target named is T1, TdT (Homo sapiens, UniProt P04053). The experiment in a line: pH regulation of TdT enzyme activity (extension reactions, TBE-Urea gel). Format: biochemical. The protocol:
The objective of these experiments is to determine the range of pH in which TdT is active.
1. A buffer of 50 mM Tris (base) and 50 mM Boric acid was prepared and its pH (initially at ˜8.5) was adjusted to 6.05, 6.9, 7.93, 8.96, 10.02, and 11.07 using acetic acid and sodium hydroxide. These buffers serve as 2× buffers in the experiments.
2. Extension reactions were assembled as follows:
3. Each reaction was incubated for 15 minutes and then loaded on a TBE-Urea gel with an unextended initiator for comparison.
In the following experiment, TdT was incubated at a pH for 15 minutes without the nucleotide or the initiator, it was then combined with the nucleotide and the initiator in such a way that the final pH of the mixture during polymerization would be different from that of the initial 15 min incubation.
1. A buffer of 50 mM Tris (base) and 50 mM Boric acid was prepared and its pH (initially at ˜8.5) was adjusted to 6.05, 6.9, 7.93, 8.96, 10.02, and 11.07 using acetic acid and sodium hydroxide. These buffers serve as 2× buffers in the experiment.
2. Extension reactions were assembled in two parts:
Eight different extension reactions were assembled with following pH used for the buffer in part 1 and part 2:
3. Both parts of each reaction were incubated for 15 minutes, they were then mixed to form the 20 μl total, then loaded on a TBE-Urea gel: […]

The target in data set [2] is T1, TdT. Particulars: Ashley et al., Virology 77, 367-375 (1977); cited from earlier work.

B1: TdT: template-independent DNA polymerase which extends single-stranded oligonucleotides (protein, UniProt P04053 1-509, looked up)
DNA nucleotidylexotransferase: MDPPRASHLSPRKKRPRQTGALMASSPQDIKFQDLVVFILEKKMGTTRRAFLMELARRKGFRVENELSDSVTHIVAENNSGSDVLEWLQAQKVQVSSQPELLDVSWLIECIRAGKPVEMTGKHQLVVRRDYSDSTNPGPPKTPPIAVQKISQYACQRRTTLNNCNQIFTDAFDILAENCEFRENEDSCVTFMRAASVLKSLPFTIISMKDTEGIPCLGSKVKGIIEEIIEDGESSEVKAVLNDERYQSFKLFTSVFGVGLKTSEKWFRMGFRTLSKVRSDKSLKFTRMQKAGFLYYEDLVSCVTRAEAEAVSVLVKEAVWAFLPDAFVTMTGGFRRGKKMGHDVDFLITSPGSTEDEEQLLQKVMNLWEKKGLLLYYDLVESTFEKLRLPSRKVDALDHFQKCFLIFKLPRQRVDSDQSSWQEGKTWKAIRVDLVLCPYERRAFALLGWTGSRQFERDLRRYATHERKMILDNHALYDKTKRIFLKAESEEEIFAHLGLDYIEPWERNA
Turning to B1, the TdT enzymatic activity result in the data set with TdT [1] (pH ranges above 6 and below 11) is given as “highly active”; with TdT [1] (pH ranges below 6 and above 11), “substantially inactivated”. Further, the “optimal pH” value with TdT [2] is 6.85.
